Test results as given in patent publication US20260209372A1.

Biological target: recombinant human CD30L protein (human) (UniProt P32971)
Test: ELISA

Sequence of recombinant human CD30L protein (human) (P32971 63-234 limits assumed): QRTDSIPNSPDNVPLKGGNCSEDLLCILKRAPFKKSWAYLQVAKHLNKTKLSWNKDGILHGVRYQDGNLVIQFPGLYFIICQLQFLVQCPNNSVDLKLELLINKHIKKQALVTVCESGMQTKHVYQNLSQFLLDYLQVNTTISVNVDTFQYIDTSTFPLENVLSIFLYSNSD

OD: 0.06 OD
B1: Clone 59 (antibody, V domains shown)
VH: QVQLVESGGGVVQPGRSLRLSCAASGFTFSIYGMHWVRQAPGKGLEWVAVIWYDGSNKYYVDSVKGRFTISRDNSKNSLYLQMNSLRAEDTAVYYCAREGNLFDYWGQGTLVTVSS
VL: DIQMTQSPSTLSASVGDRVTITCRASQSISSWLAWYQQKPGKAPKLLIYKASSLESGVPSRFSGSGSGTEFTLTISSLKPDDFATYYCQQYKSYYTFGQGTKLEIK
